Consider two molecules from patent US20170042969A1 (JULIUS MAXIMILIANS UNIVERSIT T W RZBURG, published 2017).

The target of this assay is ornithine decarboxylase (ODC) present in Xenopus laevis oocytes. Nature of the assay: cell-based or functional assay.

Some results are limits rather than exact numbers.

B1: hRS1-Reg (regulatory domain of human RS1, amino acids 16-98 of hRS1), wildtype (other, not shown: small tags and cut ends)
chain: SSGQSPDVGNPMSLARSVSASVCPIKPSDSDRIEPKAVKALKASAEFQLNSEKKEHLSLQDLSDHASSADHAPTDQSPAMPMQ
In the case of B1, the “IC50 for down-regulation of hSGLT1-mediated AMG uptake in oocytes (intracellular AMG <10 µM)” value worked out at 71 nM and the “change of affinity for down-regulation of hSGLT1 when intracellular AMG is raised to 250 µM” value is 8 fold.

B2: QEP (glutamine-glutamic acid-proline tripeptide) (peptide)
peptide: QEP
As for B2, the “IC50 for down-regulation of hSGLT1 in oocytes at about 0.25 mM intracellular AMG” value came to 0.0002 nM; the “IC50 for inhibition of SGLT1-mediated AMG uptake in oocytes without injection of AMG” value worked out at 7.9 nM; the “IC50 without injection of AMG, against QSP” value was about 40 times; the “increase of affinity at ~0.25 mM intracellular AMG against low intracellular AMG” value is over 15000 fold.
